Consider one molecule from publication PMC4954732, “Sterol Biosynthesis and Azole Tolerance Is Governed by the Opposing Actions of SrbA and the CCAAT Binding Complex”.

This data set has as its target T1, SrbA bHLHZ (Aspergillus fumigatus, UniProt Q4WIN1 161-267).
T1 sequence: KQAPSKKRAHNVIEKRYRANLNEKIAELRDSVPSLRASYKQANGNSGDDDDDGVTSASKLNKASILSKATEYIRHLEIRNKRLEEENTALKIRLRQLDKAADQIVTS
Kind of data set: SPR; apparent Kd; Rmax 197.6, two homodimers proposed; SPR on immobilised biotinylated duplexes, 1:1 model with mass transport; buffer, salt, pH and temperature not stated (protocols of refs 19, 54). The note with it: protein: recombinant; chain copies: 2; label: 5' biotin on strand 1; blunt.

B1: SRE1+SRE2 (cyp51Ap-320-32) (dsDNA)
DNA 1: AGAATCACGCGGTCCGGATGTGTGCTGAGCCG
DNA 2: CGGCTCAGCACACATCCGGACCGCGTGATTCT
B1: the Kd turned out to be 22 nM.
